# Results from the RNAGym collection of RNA variant scans (doi:10.1038/ncomms11558).
# B1: mRNA-splicing (parent)
# chain: GAUCCAGAUCUAACUUGGGGUGGCUUUGUCUUCUUCUUUUGCCAAUUCCACUAAUUGUUUGGG
# Variants of: B1
# Experiment: exon inclusion enrichment score (log2 ratio to wild type); higher = more inclusion; FAS exon 6 minigene, HEK293
row,Variant,exon inclusion enrichment score
1,GAUCCAGAUCUAACUUGGGGUGGCAUUGUCUUCUUCUUUUGCCAAUUCCACUAAUUGUUUGGG [U25A],0.211
2,GAUCCAGAUCUAACUUGGGGUGGCCUUGUCUUCUUCUUUUGCCAAUUCCACUAAUUGUUUGGG [U25C],0.429
3,GAUCCAGAUCUAACUUGGGGUGGCGUUGUCUUCUUCUUUUGCCAAUUCCACUAAUUGUUUGGG [U25G],0.284
4,GAUCCAGAUCCAACUUGGGGUGGCUUUGUCUUCUUCUUUUGCCAAUUCCACUAAUUGUUUGGG [U11C],0.559
5,GAUCCAGAUCAAACUUGGGGUGGCUUUGUCUUCUUCUUUUGCCAAUUCCACUAAUUGUUUGGG [U11A],0.08
6,GAUCCAGAUCGAACUUGGGGUGGCUUUGUCUUCUUCUUUUGCCAAUUCCACUAAUUGUUUGGG [U11G],0.304
7,GAUCCAGAUCUACCUUGGGGUGGCUUUGUCUUCUUCUUUUGCCAAUUCCACUAAUUGUUUGGG [A13C],1.26
8,GAUCCAGAUCUAGCUUGGGGUGGCUUUGUCUUCUUCUUUUGCCAAUUCCACUAAUUGUUUGGG [A13G],-0.194
9,GAUCCAGAUCUAUCUUGGGGUGGCUUUGUCUUCUUCUUUUGCCAAUUCCACUAAUUGUUUGGG [A13U],-0.29
10,GAUCCAGAUCUAACUUGGGGUGGGUUUGUCUUCUUCUUUUGCCAAUUCCACUAAUUGUUUGGG [C24G],-6.71
11,GAUCCAGAUCUAACUUGGGGUGGAUUUGUCUUCUUCUUUUGCCAAUUCCACUAAUUGUUUGGG [C24A],0.043
12,GAUCCAGAUCUAACUUGGGGUGGUUUUGUCUUCUUCUUUUGCCAAUUCCACUAAUUGUUUGGG [C24U],-1.64
13,GAUCCAGAUCUAACUUGGGGUGCCUUUGUCUUCUUCUUUUGCCAAUUCCACUAAUUGUUUGGG [G23C],-0.164
14,GAUCCAGAUCUAACUUGGGGUGUCUUUGUCUUCUUCUUUUGCCAAUUCCACUAAUUGUUUGGG [G23U],-0.765
15,GAUCCAGAUCUAACUUGGGGUGACUUUGUCUUCUUCUUUUGCCAAUUCCACUAAUUGUUUGGG [G23A],0.238
16,GAUCCAGAUGUAACUUGGGGUGGCUUUGUCUUCUUCUUUUGCCAAUUCCACUAAUUGUUUGGG [C10G],-0.124
17,GAUCCAGAUAUAACUUGGGGUGGCUUUGUCUUCUUCUUUUGCCAAUUCCACUAAUUGUUUGGG [C10A],-0.393
18,GAUCCAGAUUUAACUUGGGGUGGCUUUGUCUUCUUCUUUUGCCAAUUCCACUAAUUGUUUGGG [C10U],0.024
19,GAUCCAGAUCUAACUUGGGGUGGCUGUGUCUUCUUCUUUUGCCAAUUCCACUAAUUGUUUGGG [U26G],-0.547
20,GAUCCAGAUCUAACUUGGGGUGGCUCUGUCUUCUUCUUUUGCCAAUUCCACUAAUUGUUUGGG [U26C],-0.07
21,GAUCCAGAUCUAACUUGGGGUGGCUAUGUCUUCUUCUUUUGCCAAUUCCACUAAUUGUUUGGG [U26A],0.39

row,Variant,exon inclusion enrichment score
1,GAUCCAGAUCUAACUUGGGGGGGCUUUGUCUUCUUCUUUUGCCAAUUCCACUAAUUGUUUGGG [U21G],-5.29
2,GAUCCAGAUCUAACUUGGGGCGGCUUUGUCUUCUUCUUUUGCCAAUUCCACUAAUUGUUUGGG [U21C],0.243
3,GAUCCAGAUCUAACUUGGGGAGGCUUUGUCUUCUUCUUUUGCCAAUUCCACUAAUUGUUUGGG [U21A],0.125
4,GAUCCAGAUCUAACUUGGGGUAGCUUUGUCUUCUUCUUUUGCCAAUUCCACUAAUUGUUUGGG [G22A],-2.09
5,GAUCCAGAUCUAACUUGGGGUCGCUUUGUCUUCUUCUUUUGCCAAUUCCACUAAUUGUUUGGG [G22C],0.067
6,GAUCCAGAUCUAACUUGGGGUUGCUUUGUCUUCUUCUUUUGCCAAUUCCACUAAUUGUUUGGG [G22U],-0.589
7,GAUCCAGAUCUAACUAGGGGUGGCUUUGUCUUCUUCUUUUGCCAAUUCCACUAAUUGUUUGGG [U16A],-0.773
8,GAUCCAGAUCUAACUCGGGGUGGCUUUGUCUUCUUCUUUUGCCAAUUCCACUAAUUGUUUGGG [U16C],0.271
9,GAUCCAGAUCUAACUGGGGGUGGCUUUGUCUUCUUCUUUUGCCAAUUCCACUAAUUGUUUGGG [U16G],-0.702
10,GAUCCAGAUCUAACUUGGGGUGGCUUUGACUUCUUCUUUUGCCAAUUCCACUAAUUGUUUGGG [U29A],0.257
11,GAUCCAGAUCUAAAUUGGGGUGGCUUUGUCUUCUUCUUUUGCCAAUUCCACUAAUUGUUUGGG [C14A],-0.554
12,GAUCCAGAUCUAAUUUGGGGUGGCUUUGUCUUCUUCUUUUGCCAAUUCCACUAAUUGUUUGGG [C14U],-0.791
13,GAUCCAGAUCUAAGUUGGGGUGGCUUUGUCUUCUUCUUUUGCCAAUUCCACUAAUUGUUUGGG [C14G],-0.135
14,GAUUCAGAUCUAACUUGGGGUGGCUUUGUCUUCUUCUUUUGCCAAUUCCACUAAUUGUUUGGG [C4U],-2.86
15,GAUACAGAUCUAACUUGGGGUGGCUUUGUCUUCUUCUUUUGCCAAUUCCACUAAUUGUUUGGG [C4A],-2.11
16,GAUGCAGAUCUAACUUGGGGUGGCUUUGUCUUCUUCUUUUGCCAAUUCCACUAAUUGUUUGGG [C4G],-0.794
17,GAUCCAGAUCUAACUUUGGGUGGCUUUGUCUUCUUCUUUUGCCAAUUCCACUAAUUGUUUGGG [G17U],-0.191
18,GAUCCAGAUCUAACUUAGGGUGGCUUUGUCUUCUUCUUUUGCCAAUUCCACUAAUUGUUUGGG [G17A],-2.56
19,GAUCCAGAUCUAACUUCGGGUGGCUUUGUCUUCUUCUUUUGCCAAUUCCACUAAUUGUUUGGG [G17C],-0.067
20,AAUCCAGAUCUAACUUGGGGUGGCUUUGUCUUCUUCUUUUGCCAAUUCCACUAAUUGUUUGGG [G1A],-3.07
21,UAUCCAGAUCUAACUUGGGGUGGCUUUGUCUUCUUCUUUUGCCAAUUCCACUAAUUGUUUGGG [G1U],-5.1
